In this assay the target is T1, recombinant glycoprotein 96 (GP96) (human, UniProt P14625 22-803).
T1 construct: The purification of GP96 and the fate of the GST tag are not described; also called GRP94; Grp94; source: E. coli BL21(DE3), pGEX-6P-1 vector; recombinant protein
As to the kind of experiment: SPR; BIAcore X-100; GP96 amine-coupled to a CM5 chip; AliA or AliB as analyte at 31.3-500 nM; HBS-P buffer (0.01 M HEPES pH 7.4, 0.15 M NaCl, 0.005% surfactant P20), 37°C, 30 ul/min; 1:1 Langmuir binding model. As to conditions: both partners purified. For orientation: SPR reads the build-up and loss of mass on a sensor chip optically.

As usually defined, the Kd is the equilibrium constant for the complex coming apart. Broadly, the koff is the first-order rate constant of dissociation. By kon is commonly meant the second-order rate constant of association.

T1 sequence (P14625 22-803): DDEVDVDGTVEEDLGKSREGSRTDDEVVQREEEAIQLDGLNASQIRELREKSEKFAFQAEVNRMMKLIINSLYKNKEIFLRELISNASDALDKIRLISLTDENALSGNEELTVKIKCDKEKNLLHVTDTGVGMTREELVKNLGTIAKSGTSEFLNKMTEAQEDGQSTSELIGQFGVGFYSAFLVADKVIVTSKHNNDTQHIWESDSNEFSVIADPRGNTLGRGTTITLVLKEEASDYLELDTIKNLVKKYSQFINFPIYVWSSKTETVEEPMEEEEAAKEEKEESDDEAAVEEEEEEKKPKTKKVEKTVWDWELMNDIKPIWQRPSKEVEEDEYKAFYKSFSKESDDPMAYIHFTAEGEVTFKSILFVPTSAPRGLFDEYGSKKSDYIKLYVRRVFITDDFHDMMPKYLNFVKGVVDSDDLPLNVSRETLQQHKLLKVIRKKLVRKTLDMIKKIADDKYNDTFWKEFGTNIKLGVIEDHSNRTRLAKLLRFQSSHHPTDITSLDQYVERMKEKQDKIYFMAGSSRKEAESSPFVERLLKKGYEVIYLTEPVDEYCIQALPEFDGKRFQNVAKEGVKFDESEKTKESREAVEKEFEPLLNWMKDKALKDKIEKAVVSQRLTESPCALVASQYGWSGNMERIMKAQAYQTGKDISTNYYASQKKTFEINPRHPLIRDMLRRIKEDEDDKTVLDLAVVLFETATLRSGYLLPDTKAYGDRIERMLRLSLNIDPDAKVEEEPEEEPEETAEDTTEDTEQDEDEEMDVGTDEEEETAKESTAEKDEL

B1: recombinant AliB (natural protein)
chain: CGNSSTASKTYNYVYSSDPSSLNYLAENRAATSDIVANLVDGLLENDQYGNIIPSLAEDWTVSQDGLTYTYKLRKDAKWFTSEGEEYAPVTAQDFVTGLQYAADKKSEALYLVQDSVAGLDDYITGKTSDFSTVGVKALDDQTVQYTLVKPELYWNSKTLATILFPVNADFLKSKGDDFGKADPSSILYNGPFLMKALVSKSAIEYKKNPNYWDAKNVFVDDVKLTYYDGSDQESLERNFTAGAYTTARLFPNSSSYEGIKEKYKNNIIYSMQNSTSYFFNFNLDRKSYNYTSKTSDIEKKSTQEAVLNKNFRQAINFAFDRTSYGAQSEGKEGATKILRNLVVPPNFVSIKGKDFGEVVASKMVNYGKEWQGINFADGQDPYYNPEKAKAKFAEAKKELEAKGVQFPIHLDKTVEVTDKVGIQGVSSIKQSIESVLGSDNVVIDIQQLTSDEFDSSGYFAQTAAQKDYDLYHGGWGPDYQDPSTYLDIFNTNSGGFLQNLGLEPGEANDKAKAVGLDVYTQMLEEANKEQDPAKRYEKYADIQAWLIDSSLVLPSVSRGGTPSLRRTVPFAAAYGLTGTKGVESYKYLKVQDKIVTTDEYAKAREKWLKEKEESNKKAQEELAKHVK
notes: also called Ali protein; source: E. coli XL10-Gold, pQE30 vector, purified (QIAexpress protein purification system)
As to B1, the Kd was found to be 48.5 nM, the koff stood at 10.1 s⁻¹ and the kon was 2.09e+08 M⁻¹ s⁻¹.

B2: recombinant AliA (natural protein)
chain: CSGSGSSTKGEKTFSYIYETDPDNLNYLTTAKAATANITSNVVDGLLENDRYGNFVPSMAEDWSVSKDGLTYTYTIRKDAKWYTSEGEEYAAVKAQDFVTGLKYAADKKSDALYLVQESIKGLDAYVKGEIKDFSQVGIKALDEQTVQYTLNKPESFWNSKTTMGVLAPVNEEFLNSKGDDFAKATDPSSLLYNGPYLLKSIVTKSSVEFAKNPNYWDKDNVHVDKVKLSFWDGQDTSKPAENFKDGSLTAARLYPTSASFAELEKSMKDNIVYTQQDSITYLVGTNIDRQSYKYTSKTSDEQKASTKKALLNKDFRQAIAFGFDRTAYASQLNGQTGASKILRNLFVPPTFVQADGKNFGDMVKEKLVTYGDEWKDVNLADSQDGLYNPEKAKAEFAKAKSALQAEGVQFPIHLDMPVDQTATTKVQRVQSMKQSLEATLGADNVIIDIQQLQKDEVNNITYFAENAAGEDWDLSDNVGWGPDFADPSTYLDIIKPSVGESTKTYLGFDSGEDNVAAKKVGLYDYEKLVTEAGDETTDVAKRYDKYAAAQAWLTDSALIIPTTSRTGRPILSKMVPFTIPFALSGNKGTSEPVLYKYLELQDKAVTVDEYQKAQEKWMKEKEESNKKAQEDLAKHVK
notes: as for B1
As for B2, the equilibrium dissociation constant (Kd) came to 34 nM, the koff stood at 0.000785 s⁻¹ and the kon amounted to 23100 M⁻¹ s⁻¹.

The values are drawn from article PMC8262878, “GP96 Drives Exacerbation of Secondary Bacterial Pneumonia following Influenza A Virus Infection” (mBio, 2021).
